Assay results: US20090099075A1

Target: human hair (hair keratin) (human)
Assay: quantitative hair binding assay, peroxidase coupled via the His tag, TMB

B1: KBD-B (keratin-binding domain B of human desmoplakin), His-tagged, expressed from pQE30-KBD-B (SEQ ID No.: 166) (protein)
chain: MRGSHHHHHHGSACELEPHTGLLLLSVQKRSMSFQGIRQPVTVTELVDSGILRPSTVNELESGQISYDEVGERIKDFLQGSSCIAGIYNETTKQKLGIYEAMKIGLVRPGTALELLEAQAATGFIVDPVSNLRLPVEEAYKRGLVGIEFKEKLLSAERAVTGYNDPETGNIISLFQAMNKELIEKGHGIRLLEAQIATGGIIDPKESHRLPVDIAYKRGYFNEELSEILSDPSDDTKGFFDPNTEENLTYLQLKERCIKDEETGLCLLPLKEKKKQVQTSQKNTLRKRRVVIVDPETNKEMSVQEGVDLQPSLIS
With B1 the absorption at 405 nm was 0.65 A405 nm.
